# Source: the supplement of paper PMC7125110
# ± gives the standard error. Fewer inactive variants are shown than the library holds.
# B1: glmS ribozyme (parent)
# chain: AUAAAAGCGCCAGAACUACAGAAAUGUAGUUGACGAGGAGGAGGUUUAUCGAAUUUUCGGCGGAUGCCUCCAAA
# Assays:
# Details in all cases: with glucosamine-6-phosphate
# glucosamine-6-phosphate [1] = variants of: B1; assay: self-cleavage kobs at 40 uM GlcN6P; higher = faster cleavage; RNA array
# Method in brief: (§1)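 Glucosamine-6-phosphate, from 40 μM to 10 mM in HEPES/KCl/Mg(OAc)2 buffer, was flowed over sequenced MiSeq chips carrying barcoded ribozyme variants transcribed in situ by E. coli RNA polymerase. A hybridised Cy3 probe tracked the variants at 37 °C as tiles were imaged over ~14 h. kobs, kcat and KM were obtained by fitting normalised per-tile medians to exponential decays and then applying weighted Michaelis–Menten fits across concentrations.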
# glucosamine-6-phosphate [2] = variants of: B1; assay: self-cleavage kobs at 10000 uM GlcN6P; higher = faster cleavage; RNA array
# Method in brief: as §1
# glucosamine-6-phosphate [3] = variants of: B1; assay: self-cleavage kobs at 160 uM GlcN6P; higher = faster cleavage; RNA array
# Method in brief: as §1
# glucosamine-6-phosphate [4] = variants of: B1; assay: self-cleavage kobs at 640 uM GlcN6P; higher = faster cleavage; RNA array
# Method in brief: as §1
# glucosamine-6-phosphate [5] = variants of: B1; assay: self-cleavage kobs at 2500 uM GlcN6P; higher = faster cleavage; RNA array
# Method in brief: as §1
Variant,self-cleavage kobs at 40 uM GlcN6P (glucosamine-6-phosphate [1]) [s⁻¹],self-cleavage kobs at 10000 uM GlcN6P (glucosamine-6-phosphate [2]) [s⁻¹],self-cleavage kobs at 160 uM GlcN6P (glucosamine-6-phosphate [3]) [s⁻¹],self-cleavage kobs at 640 uM GlcN6P (glucosamine-6-phosphate [4]) [s⁻¹],self-cleavage kobs at 2500 uM GlcN6P (glucosamine-6-phosphate [5]) [s⁻¹]
G37A U56G,5.06e-05 ± 1.6e-05,0.00174 ± 0.00028,,,
G37U G44C,< 1e-05,,< 1e-05,< 1e-05,
G38C G43C,< 1e-05,,,,
A36G G41A,< 1e-05,< 1e-05,< 1e-05,< 1e-05,< 1e-05
A36U G66U,< 1e-05,< 1e-05,< 1e-05,< 1e-05,
G37C A39G,< 1e-05,3.63e-05 ± 7.3e-06,,,
A36G G41A G51C C61G C67U,< 1e-05,< 1e-05,,,
G37U G63A,< 1e-05,< 1e-05,< 1e-05,< 1e-05,< 1e-05
G35U G59A,< 1e-05,,,< 1e-05,
G38A U49G A52U,< 1e-05,,,,
G35A G51C,< 1e-05,,,< 1e-05,< 1e-05
G37U A52U U56C,< 1e-05,,,< 1e-05,< 1e-05
A36U A48U G51U U65G,< 1e-05,,,,
G37C U56C,< 1e-05,< 1e-05,,,
G38C A39U,< 1e-05,,,< 1e-05,
G35U,< 1e-05,< 1e-05,< 1e-05,< 1e-05,< 1e-05
A36U A42U C68U,< 1e-05,,,,
A39C C50A G60A C61U U65A,< 1e-05,< 1e-05,,,
G37U G41U U65C,< 1e-05,,,,
G38A U47A C71G,< 1e-05,< 1e-05,,,
G37U A42U,< 1e-05,,< 1e-05,< 1e-05,
G38A A39G U45G C50G,< 1e-05,,,,< 1e-05
G35U C68A,< 1e-05,< 1e-05,< 1e-05,< 1e-05,< 1e-05
G37U U65G G66U,< 1e-05,,,,
G35A A64U C71A,< 1e-05,,,,
G38C U56G,< 1e-05,,< 1e-05,< 1e-05,< 1e-05

Variant,self-cleavage kobs at 40 uM GlcN6P (glucosamine-6-phosphate [1]) [s⁻¹],self-cleavage kobs at 10000 uM GlcN6P (glucosamine-6-phosphate [2]) [s⁻¹],self-cleavage kobs at 160 uM GlcN6P (glucosamine-6-phosphate [3]) [s⁻¹],self-cleavage kobs at 640 uM GlcN6P (glucosamine-6-phosphate [4]) [s⁻¹],self-cleavage kobs at 2500 uM GlcN6P (glucosamine-6-phosphate [5]) [s⁻¹]
G35A A52G,< 1e-05,< 1e-05,,,< 1e-05
G35A U65C,< 1e-05,< 1e-05,< 1e-05,< 1e-05,< 1e-05
G35A U65A,< 1e-05,< 1e-05,< 1e-05,< 1e-05,< 1e-05
A36U U47G A53G C68G,7.44e-05 ± 2.6e-05,0.000107 ± 3.7e-05,,,
A36G C50G U56G C61A,0.000189 ± 6.2e-05,0.000459 ± 0.00011,,,
G38C A39U A42G U54A C67G C70U,< 1e-05,,,,
G38U U55C C67G,< 1e-05,,,< 1e-05,
G35U G38C,< 1e-05,< 1e-05,,< 1e-05,< 1e-05
G37U U47A C68G,< 1e-05,< 1e-05,,,9e-05 ± 3.5e-05
G35C U65A,< 1e-05,< 1e-05,,< 1e-05,
G37U A39G A42U C70U,< 1e-05,,,,
G38A A42C,< 1e-05,< 1e-05,,,
G38A C50G C68U,7.89e-05 ± 2.3e-05,4.82e-05 ± 1.5e-05,,8.33e-05 ± 3.1e-05,0.000109 ± 2.4e-05
G37A G38U C71U,< 1e-05,,,,
G37U G40U U46G U54C,< 1e-05,< 1e-05,< 1e-05,< 1e-05,< 1e-05
A39C U54C A64C,< 1e-05,,,,
G38U G41C C68G,< 1e-05,< 1e-05,,,
G35A A36G A48G A53G,< 1e-05,< 1e-05,,,
G37A G59U C61U,< 1e-05,< 1e-05,,,
A36C G41A G43A,< 1e-05,,,,
G37U G66A,< 1e-05,,,< 1e-05,
A36G C61A G62U C67A,< 1e-05,,,,
G35C U46G C70G,< 1e-05,< 1e-05,,< 1e-05,< 1e-05
G37U C68A,< 1e-05,< 1e-05,,,
G38A U56C,< 1e-05,< 1e-05,< 1e-05,< 1e-05,
A36C G63U,< 1e-05,,,< 1e-05,

Variant,self-cleavage kobs at 40 uM GlcN6P (glucosamine-6-phosphate [1]) [s⁻¹],self-cleavage kobs at 10000 uM GlcN6P (glucosamine-6-phosphate [2]) [s⁻¹],self-cleavage kobs at 160 uM GlcN6P (glucosamine-6-phosphate [3]) [s⁻¹],self-cleavage kobs at 640 uM GlcN6P (glucosamine-6-phosphate [4]) [s⁻¹],self-cleavage kobs at 2500 uM GlcN6P (glucosamine-6-phosphate [5]) [s⁻¹]
A36U C50G,6.51e-05 ± 1.4e-05,,8.01e-05 ± 1.4e-05,2.94e-05 ± 1.3e-05,0.000455 ± 0.00018
A39G C61U,< 1e-05,3.27e-05 ± 1.1e-05,,,
A36G G44C A64C C67U,< 1e-05,,,,
G38C U49G A52C,< 1e-05,,,,< 1e-05
A36U C58U,< 1e-05,< 1e-05,,< 1e-05,< 1e-05
G35U A42U,< 1e-05,,< 1e-05,< 1e-05,< 1e-05
G35A G40C A48G G62U G63C,< 1e-05,,,,
G37C G60U,< 1e-05,< 1e-05,< 1e-05,,
A36C G60U C67A,< 1e-05,< 1e-05,,,
G35U G41U U45C,< 1e-05,< 1e-05,,,
G38U U46C,< 1e-05,,,,< 1e-05
G38C G60C C70U,< 1e-05,,,,
G37U U46C,< 1e-05,< 1e-05,,,
A36C U45A,< 1e-05,< 1e-05,< 1e-05,,
A36C U45G,< 1e-05,< 1e-05,< 1e-05,< 1e-05,< 1e-05
G38U G44U U69G C70G,< 1e-05,,,,
A36C G43A U47C,< 1e-05,,,,
G35C U46G,< 1e-05,< 1e-05,< 1e-05,< 1e-05,< 1e-05
A36U G41A,< 1e-05,< 1e-05,< 1e-05,< 1e-05,< 1e-05
G35A U54A,< 1e-05,,,< 1e-05,< 1e-05
G38U U56G,< 1e-05,< 1e-05,,,< 1e-05
G35C C61U G62A,< 1e-05,< 1e-05,,,
A36G C50U U57A,< 1e-05,< 1e-05,,,
G38A G41U U46C,< 1e-05,< 1e-05,,,
A36C G40U C67U,< 1e-05,< 1e-05,< 1e-05,< 1e-05,
A36U U46G A53U,< 1e-05,< 1e-05,,< 1e-05,< 1e-05

Variant,self-cleavage kobs at 40 uM GlcN6P (glucosamine-6-phosphate [1]) [s⁻¹],self-cleavage kobs at 10000 uM GlcN6P (glucosamine-6-phosphate [2]) [s⁻¹],self-cleavage kobs at 160 uM GlcN6P (glucosamine-6-phosphate [3]) [s⁻¹],self-cleavage kobs at 640 uM GlcN6P (glucosamine-6-phosphate [4]) [s⁻¹],self-cleavage kobs at 2500 uM GlcN6P (glucosamine-6-phosphate [5]) [s⁻¹]
A39C C50U A64G,< 1e-05,,,,
A36U U55G,< 1e-05,,,,
A36G C71A,< 1e-05,,< 1e-05,< 1e-05,< 1e-05
A39C G44C U65C,< 1e-05,,,,
A36C A53G,< 1e-05,< 1e-05,,,
G37A G38A G41A,< 1e-05,< 1e-05,,,
G37C C50G C58G C67G,0.00014 ± 3.9e-05,0.000593 ± 0.00017,0.00039 ± 0.00012,0.000349 ± 8.1e-05,6.52e-05 ± 2.2e-05
A36U U69G C71U,0.000104 ± 4.8e-05,,,,
G35U G37C U56G,< 1e-05,,,< 1e-05,< 1e-05
G38C U65G G66A,< 1e-05,,< 1e-05,< 1e-05,< 1e-05
G37A G51A A53C,< 1e-05,< 1e-05,,,
A36U U47C,< 1e-05,< 1e-05,< 1e-05,< 1e-05,
A39C A42U A48G C50A,< 1e-05,,,,
A36C G43A U55A C71U,< 1e-05,< 1e-05,,< 1e-05,< 1e-05
G37A A52C C61A,< 1e-05,< 1e-05,,,
G35U G44C U56C,< 1e-05,,,,
A36U G59U,< 1e-05,< 1e-05,,< 1e-05,
A36U G59C,< 1e-05,< 1e-05,,< 1e-05,
G35A G60A G66U C67U U69G,< 1e-05,,,,< 1e-05
G38C U69C,< 1e-05,< 1e-05,< 1e-05,,
G35C A39C,< 1e-05,< 1e-05,< 1e-05,< 1e-05,< 1e-05
G37U A39G G62A C68A,< 1e-05,< 1e-05,,,
G37U G43C U65C,< 1e-05,< 1e-05,,< 1e-05,
